Laboratory results reported in paper PMC5663709.

Key:
[1] = molecular target: cell surface-expressed H3N2 WN/05 HA trimer (influenza A virus A/Wisconsin/67/2005 (H3N2)); experiment: FACS
[2] = molecular target: recombinant hemagglutinin (HA) trimer of H3N2 A/Wisconsin/67/2005, ectodomain (influenza A virus A/Wisconsin/67/2005 (H3N2)); experiment: ELISA
[3] = molecular target: recombinant hemagglutinin (HA) trimer of H1N1 A/California/07/2009, ectodomain (influenza A virus A/California/07/2009 (H1N1)) (UniProt C3W5X2); experiment: ELISA
[4] = molecular target: recombinant hemagglutinin (HA) trimer of H5N1 A/Vietnam/1203/2004, ectodomain (influenza A virus A/Vietnam/1203/2004 (H5N1)) (UniProt Q6DQ33); experiment: ELISA
[5] = molecular target: recombinant hemagglutinin (HA) trimer of H7N9 A/Anhui/1-BALF_RG17/2013, ectodomain (influenza A virus A/Anhui/1-BALF_RG17/2013 (H7N9)); experiment: ELISA

Row | Substance | EC50 [1] | EC50 [2] | EC50 [3] | EC50 [4] | EC50 [5]
1 | C05 | 0.13 µg/mL | 0.00844 µg/mL |  |  | 
2 | CR8020 | 0.569 µg/mL | 0.0194 µg/mL |  |  | 
3 | F10 |  |  | 0.0122 µg/mL | 0.021 µg/mL | 
4 | FI6V3 | 0.065 µg/mL | 0.0789 µg/mL | 0.0107 µg/mL | 0.00648 µg/mL | 0.314 µg/mL
